Here are results for one molecule from paper PMC3586674.

This data set has as its target T1, ECudA (Entamoeba histolytica, UniProt Q24859 1-283).
T1 sequence: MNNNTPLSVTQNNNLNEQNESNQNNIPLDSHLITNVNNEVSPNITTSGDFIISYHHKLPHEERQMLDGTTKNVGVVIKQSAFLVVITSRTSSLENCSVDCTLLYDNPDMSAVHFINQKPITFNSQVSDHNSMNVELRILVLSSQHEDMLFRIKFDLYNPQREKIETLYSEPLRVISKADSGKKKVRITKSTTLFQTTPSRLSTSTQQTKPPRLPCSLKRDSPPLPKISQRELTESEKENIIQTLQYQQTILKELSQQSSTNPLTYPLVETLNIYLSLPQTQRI
Kind of data set: competition.

B1: WT 20-mer (dsDNA)
DNA 1: CACTGTGAGAATTTTCTATT
DNA 2: AATAGAAAATTCTCACAGTG
Consider B1, for which the binding result is reported as “binds”.
